# Reference: patent US20250043302A1, “MUTATED HYDROXYPHENYLPYRUVATE DIOXYGENASE POLYPEPTIDE, AND CODING GENE AND USE THEREOF” (BEIJING DABEINONG BIOTECHNOLOGY CO., LTD., priority 2021, published 2025)
# Legend:
# Format in all cases: in vivo
# [1] = system: Arabidopsis thaliana T1 plants; assay: Mesotrione tolerance of transgenic Arabidopsis thaliana T1 plants (spray, bleached leaf area grade, damage score); design: Scores: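 damage score 0-100 computed as Σ(N×S)/(T×M)×100 over grades 0-3 with higher meaning more damage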; settings: Arabidopsis thaliana T1 plants; for Grade 0 (classification and statistics of the grade of pesticide damage; number of plants) / Grade 1 (classification and statistics of the grade of pesticide damage; number of plants) / Grade 2 (classification and statistics of the grade of pesticide damage; number of plants) / Grade 3 (classification and statistics of the grade of pesticide damage; number of plants): 16 plants
# Procedure, shortened: (§1)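 Damage graded 0–3 from the proportion of bleached leaf area 7 days after spraying. Plants were glufosinate-selected T1 lines, 18 days after sowing, plus vector and wild-type controls. Rates: mesotrione 52.5–420, isoxaflutole 35–280, topramezone 25–200 g ai/ha, with water (0×).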
# [2] = system: Arabidopsis thaliana T1 plants; assay: Topramezone tolerance of transgenic Arabidopsis thaliana T1 plants (spray, bleached leaf area grade, damage score); settings: 7 DAT, Table 4; for Classification and statistics of the grade of pesticide damage: Grade 0 / Classification and statistics of the grade of pesticide damage: Grade 1 / Classification and statistics of the grade of pesticide damage: Grade 2 / Classification and statistics of the grade of pesticide damage: Grade 3: number of plants; for Scores: pesticide damage score 0-100
# Procedure, shortened: as §1
# [3] = system: Arabidopsis thaliana T1 plants; assay: Isoxaflutole tolerance of transgenic Arabidopsis thaliana T1 plants (spray, bleached leaf area grade, damage score); design: Scores (pesticide damage): scale not given here; settings: spray, Arabidopsis thaliana T1 plants; for Classification and statistics of the grade of pesticide damage: Grade 0 (number of plants) / Classification and statistics of the grade of pesticide damage: Grade 1 (number of plants) / Classification and statistics of the grade of pesticide damage: Grade 2 (number of plants) / Classification and statistics of the grade of pesticide damage: Grade 3 (number of plants): 16 plants
# Procedure, shortened: as §1
# [4] = isoxaflutole 35 g ai/ha (0.5x field concentration)
# [5] = isoxaflutole 70 g ai/ha (1x field concentration)
Molecule,Resistance evaluation ([1]; mesotrione 52.5 g ai/ha),Scores ([1]; mesotrione 52.5 g ai/ha),Grade 0 (classification and statistics of the grade of pesticide damage; number of plants) ([1]; mesotrione 52.5 g ai/ha),Grade 1 (classification and statistics of the grade of pesticide damage; number of plants) ([1]; mesotrione 52.5 g ai/ha),Grade 2 (classification and statistics of the grade of pesticide damage; number of plants) ([1]; mesotrione 52.5 g ai/ha),Grade 3 (classification and statistics of the grade of pesticide damage; number of plants) ([1]; mesotrione 52.5 g ai/ha),Resistance evaluation ([1]; mesotrione 105 g ai/ha),Scores ([1]; mesotrione 105 g ai/ha),Grade 0 (classification and statistics of the grade of pesticide damage; number of plants) ([1]; mesotrione 105 g ai/ha),Grade 1 (classification and statistics of the grade of pesticide damage; number of plants) ([1]; mesotrione 105 g ai/ha),Grade 2 (classification and statistics of the grade of pesticide damage; number of plants) ([1]; mesotrione 105 g ai/ha),Grade 3 (classification and statistics of the grade of pesticide damage; number of plants) ([1]; mesotrione 105 g ai/ha),Classification and statistics of the grade of pesticide damage: Grade 0 ([2]; topramezone 25 g ai/ha (1×)),Classification and statistics of the grade of pesticide damage: Grade 1 ([2]; topramezone 25 g ai/ha (1×)),Classification and statistics of the grade of pesticide damage: Grade 2 ([2]; topramezone 25 g ai/ha (1×)),Classification and statistics of the grade of pesticide damage: Grade 3 ([2]; topramezone 25 g ai/ha (1×)),Classification and statistics of the grade of pesticide damage: Grade 0 ([2]; topramezone 100 g ai/ha (4×)),Classification and statistics of the grade of pesticide damage: Grade 1 ([2]; topramezone 100 g ai/ha (4×)),Classification and statistics of the grade of pesticide damage: Grade 2 ([2]; topramezone 100 g ai/ha (4×)),Classification and statistics of the grade of pesticide damage: Grade 3 ([2]; topramezone 100 g ai/ha (4×)),other results
"HvHPPDm-F383W-02: nucleotide sequence encoding Hordeum vulgare HPPD with F383W; vector DBN11764 (nucleic acid, HvHPPDm-F383W-02 Nucleotide Sequence, vector DBN11764) DNA: ATGCCGCCGACGCCCACCACCCCAGCAGCTACCGGAGCTGCGGCTGCAGTAACCCCTGAGCATGCTCGGCCCCACAGGATGGTGAGGTTTAATCCAAGATCAGATCGTTTTCATACACTCTCGTTCCACCATGTTGAGTTCTGGTGCGCCGACGCGGCTTCAGCGGCCGGGAGGTTCGCCTTCGCGCTGGGGGCCCCTCTTGCCGCGCGTAGTGATTTGTCTACTGGGAATTCAGCGCACGCGTCCCAGCTTCTCCGAAGCGGCAGTCTCGCCTTTCTCTTCACTGCACCATATGCAAATGGATGTGATGCAGCAACTGCTTCCCTGCCGAGCTTTTCTGCGGATGCCGCGAGGCGATTCAGTGCTGACCATGGGATCGCCGTCCGGTCAGTTGCTCTTAGAGTGGCTGATGCTGCTGAGGCATTCAGGGCTTCAAGGCGTCGTGGTGCACGCCCGGCGTTTGCCCCGGTTGATCTTGGGCGGGGGTTTGCTTTTGCAGAGGTGGAGCTGTACGGCGACGTGGTGCTCCGATTTGTTTCTCACCCGGACGGCACTGATGTGCCCTTCTTGCCAGGATTTGAAGGTGTGACCAACCCTGATGCCGTGGATTATGGACTCACAAGATTTGATCATGTGGTTGGCAATGTTCCTGAATTGGCACCTGCTGCCGCTTACATCGCAGGTTTTACTGGCTTCCATGAATTTGCTGAATTCACGGCGGAGGATGTTGGTACAACTGAGTCAGGGCTGAACAGTGTTGTTTTAGCCAACAACTCAGAAGGAGTTCTCCTTCCCTTGAATGAACCTGTTCATGGAACCAAGCGCCGCTCCCAAATTCAAACATTTCTTGAGCACCACGGCGGCCCTGGTGTTCAACATATTGCTGTCGCCTCTAGCGACGTCCTGCGTACATTACGCAAGATGAGGGCTCGGTCCGCAATGGGTGGTTTCGACTTCCTCCCTCCACCATTGCCAAAATATTATGAAGGCGTCAGAAGACTTGCAGGAGATGTCCTCTCTGAAGCTCAGATCAAGGAGTGCCAAGAACTTGGCGTCTTGGTTGATAGAGATGACCAAGGAGTACTTCTGCAGATATTTACAAAACCCGTTGGTGACAGGCCAACTCTTTGGCTGGAGATGATTCAGAGAATTGGCTGCATGGAGAAAGATGAAAGAGGCGAGGAGTACCAGAAGGGTGGTTGTGGAGGCTTTGGAAAAGGAAACTTCTCAGAGCTGTTCAAGTCCATAGAAGATTACGAGAAAAGTCTAGAAGCCAAGCAGTCTGCTGCAGTGCAAGGTTCCTGA",Moderately,33,2,12,2,0,Non-resistant,100,0,0,0,16,4,6,5,1,0,0,0,16,"Scores ([2]; topramezone 25 g ai/ha (1×)): 40; Scores ([2]; topramezone 100 g ai/ha (4×)): 100; Resistance evaluation ([2]; topramezone 25 g ai/ha (1×)): poorly; Resistance evaluation ([2]; topramezone 100 g ai/ha (4×)): non-resistant (non-resistant plants (scores 68-100)); Resistance evaluation [3, 4]: Poorly; Scores (pesticide damage) [3, 4]: 67; Classification and statistics of the grade of pesticide damage: Grade 0 (number of plants) [3, 4]: 0; Classification and statistics of the grade of pesticide damage: Grade 1 (number of plants) [3, 4]: 1; Classification and statistics of the grade of pesticide damage: Grade 2 (number of plants) [3, 4]: 14; Classification and statistics of the grade of pesticide damage: Grade 3 (number of plants) [3, 4]: 1; Resistance evaluation [3, 5]: Non-resistant; Scores (pesticide damage) [3, 5]: 100; Classification and statistics of the grade of pesticide damage: Grade 0 (number of plants) [3, 5]: 0; Classification and statistics of the grade of pesticide damage: Grade 1 (number of plants) [3, 5]: 0; Classification and statistics of the grade of pesticide damage: Grade 2 (number of plants) [3, 5]: 0; Classification and statistics of the grade of pesticide damage: Grade 3 (number of plants) [3, 5]: 16"
"ZmHPPD-02: nucleotide sequence encoding wild-type Zea mays HPPD; vector DBN11766 (nucleic acid, ZmHPPD-02 Nucleotide Sequence, vector DBN11766) DNA: ATGCCACCCACACCCACAGCAGCAGCGGCGGGCGCAGCGGTCGCAGCGGCGTCAGCGGCGGAGCAAGCGGCGTTCAGATTGGTTGGTCACCGCAACTTCGTGAGATTCAATCCTCGCTCAGATAGATTCCATACTCTGGCCTTCCACCATGTTGAGCTTTGGTGCGCTGATGCTGCTTCTGCTGCTGGAAGGTTCAGCTTCGGTTTGGGTGCTCCCCTCGCTGCTAGATCTGATTTGAGCACTGGTAACTCAGCACATGCTTCCCTCCTGCTTAGATCTGGCTCTCTGAGCTTCCTTTTCACTGCTCCATATGCTCATGGTGCTGATGCTGCTACAGCTGCTCTCCCTTCATTCTCCGCTGCTGCTGCTAGGAGATTCGCTGCTGATCACGGATTGGCTGTGAGGGCTGTTGCACTTAGAGTTGCTGATGCTGAGGAGGCCTTCCGCACCTCTGTTGCTGCTGGAGCCAGACCAGCTTTCGGACCTGTTGATCTCGGAAGGGGTTTCCGCCTGGCTGAGGTGGAGCTTTACGGCGATGTGGTTCTGCGCTACGTTAGCTATCCTGATGGTGCTGCTGGTGAACCTTTCCTTCCAGGATTCGAGGGTGTGGCCTCACCAGGTGCCGCTGATTACGGCCTGTCCAGATTCGACCACATTGTTGGAAATGTTCCTGAGCTTGCTCCAGCTGCTGCCTACTTCGCTGGCTTCACCGGATTCCATGAGTTCGCCGAGTTCACCACTGAGGATGTGGGAACTGCTGAGTCTGGTTTGAATAGCATGGTGCTCGCCAACAATTCAGAGAACGTTTTGCTCCCTCTGAATGAGCCCGTGCACGGAACAAAGAGAAGGTCCCAGATTCAAACCTTCTTGGATCACCACGGCGGCCCAGGTGTTCAGCATATGGCTCTCGCCTCCGATGACGTGTTGAGAACCCTCAGGGAGATGCAAGCCAGGTCTGCTATGGGTGGCTTCGAGTTCATGGCCCCACCTACAAGCGATTACTATGATGGTGTGCGCAGAAGGGCTGGCGACGTTCTTACCGAGGCTCAGATCAAGGAGTGCCAAGAGCTGGGCGTGCTTGTTGATAGAGATGACCAGGGAGTTCTGCTTCAAATTTTCCCCAAGCCAGTGGGCGACAGGCCTACTTTGTTCCTCGAGATTATCCAGAGAATCGGATGCATGGAGAGGGATGAGAAGGGTCAGGAGTACCAAAAGGGAGGTTGCGGCGGATTCGGCAAGGGAAATTTCTCACAACTCTTCAAGTCCATCGAGGACTATGAAAAGAGTCTGGAAGCGATGCAGGCAGCAGCAGCAGCAACCGCACAGGGGTCGTGA",Non-resistant,100,0,0,0,16,Non-resistant,100,0,0,0,16,0,0,0,16,0,0,0,16,"Scores ([2]; topramezone 25 g ai/ha (1×)): 100; Scores ([2]; topramezone 100 g ai/ha (4×)): 100; Resistance evaluation ([2]; topramezone 25 g ai/ha (1×)): non-resistant (non-resistant plants (scores 68-100)); Resistance evaluation ([2]; topramezone 100 g ai/ha (4×)): non-resistant (non-resistant plants (scores 68-100)); Resistance evaluation [3, 4]: Non-resistant; Scores (pesticide damage) [3, 4]: 100; Classification and statistics of the grade of pesticide damage: Grade 0 (number of plants) [3, 4]: 0; Classification and statistics of the grade of pesticide damage: Grade 1 (number of plants) [3, 4]: 0; Classification and statistics of the grade of pesticide damage: Grade 2 (number of plants) [3, 4]: 0; Classification and statistics of the grade of pesticide damage: Grade 3 (number of plants) [3, 4]: 16; Resistance evaluation [3, 5]: Non-resistant; Scores (pesticide damage) [3, 5]: 100; Classification and statistics of the grade of pesticide damage: Grade 0 (number of plants) [3, 5]: 0; Classification and statistics of the grade of pesticide damage: Grade 1 (number of plants) [3, 5]: 0; Classification and statistics of the grade of pesticide damage: Grade 2 (number of plants) [3, 5]: 0; Classification and statistics of the grade of pesticide damage: Grade 3 (number of plants) [3, 5]: 16"
